In patent publication US20160251435A1 (INHIBRX, published 2016):
Positions count from the first letter of the chain named. Where two headings read alike, the source gives them in different places. One block for each binder: values may come before it.

What was measured:
[1] = target: T1, human CD47, endogenous cell surface form (Raji, CCRF-CEM cells) (human, UniProt Q08722 19-323); assay: flow cytometry on Raji cells, MFI (FL4)
T1 construct: the cells carry endogenous CD47; also called cell surface CD47
Experimental: (§1) Humanized antibodies were tested for their ability to bind Raji cells by flow cytometry (FIG. 7). […] Apparent affinities were determined by non-linear fits (Prism Graphpad Software) of the median fluorescence intensities at various antibody concentrations.

[2] = target: T1, human CD47, endogenous cell surface …; assay: flow cytometry on Raji cells, MFI (FL4); remark: listed apart in the source
Experimental: as §1

[3] = target: T1, human CD47, endogenous cell surface …; assay: apparent KD, flow cytometry on Raji cells, non-linear fit of median fluorescence
[4] = target: T1, human CD47, endogenous cell surface …; assay: flow cytometry on Raji cells, MFI (FL4); remark: listed apart in the source
Experimental: as §1

[5] = target: T1, human CD47, endogenous cell surface …; assay: flow cytometry on Raji cells, MFI (FL4); remark: listed apart in the source
Experimental: as §1

[6] = target: T1, human CD47, endogenous cell surface …; assay: flow cytometry on Raji cells, MFI (FL4); remark: listed apart in the source
Experimental: as §1

[7] = target: T1, human CD47, endogenous cell surface …; assay: apparent KD, flow cytometry on Raji cells, non-linear fit of median fluorescence; remark: listed apart in the source
Experimental: as §1

[8] = target: T1, human CD47, endogenous cell surface …; assay: flow cytometry on Raji cells, MFI (FL4); remark: listed apart in the source
Experimental: as §1

[9] = target: T1, human CD47, endogenous cell surface …; assay: flow cytometry on Raji cells, MFI (FL4); remark: listed apart in the source
Experimental: as §1

[10] = target: T1, human CD47, endogenous cell surface …; assay: flow cytometry blocking: SIRPa-Fc binding to CCRF-CEM cells with rising antibody (method of Example 3)
[11] = target: T1, human CD47, endogenous cell surface …; assay: apparent KD, flow cytometry on cell surface CD47, non-linear fit of median fluorescence
Experimental: Apparent affinities were determined by non-linear fits (Prism Graphpad Software) of the median fluorescence intensities at various antibody concentrations.

[12] = target: T1, human CD47, endogenous cell surface …; assay: flow cytometry on CCRF-CEM cells, FITC anti-mouse IgG, MFI-FL1
Text: Bound CD47 antibodies were detected using a FITC conjugated anti-mouse IgG secondary antibody (Jackson ImmunoResearch).

EC50 (read off the curve) [1]: ~0.05 nM | EC50 (read off the curve) [2]: ~0.1 nM | Kd [3]: 0.078 nM | EC50 (read off the curve) [4]: ~0.1 nM | EC50 (read off the curve) [5]: ~0.2 nM | EC50 (read off the curve) [6]: ~0.05 nM | Kd [7]: 0.0364 nM
B1: chimeric 2A1 antibody (2A1-xi) (antibody, V domains shown)
VH: EVQLQQSGAELVRSGASVKLSCTASGFNIKDYYLHWVKQRPEQGLEWIGWIDPDNGDTEFAPKFQGKATMTADTSSNTAYLQLSSLTSEDTAVYYCNAAYGSSSYPMDYWGQGTSVTV
VL: DIKMTQSPSSLYASLGERVTITCKASQDIHRYLSWFQQKPGKSPKILIYRANRLVDGVPSRFSGSGSGQDYSLTISSLEYEDMGIYYCLQYDEFPYTFGGGTKLEIK

EC50 (read off the curve) [2]: ~0.1 nM | EC50 (read off the curve) [8]: ~0.2 nM | EC50 (read off the curve) [5]: ~0.3 nM | EC50 (read off the curve) [6]: ~0.1 nM | EC50 (read off the curve) [9]: ~0.2 nM
B2: humanized antibody AB2.05 (human IgG1) (antibody, V domains shown)
VH: QMQLVQSGAEVKKTGSSVKVSCKASGFNIKDYYLHWVRQAPGQALEWMGWIDPDNGDTEYAQKFQDRVTITRDRSMSTAYMELSSLRSEDTAMYYCNAAYGSSSYPMDYWGQGTTVTV
VL: NIQMTQSPSAMSASVGDRVTITCKASQDIHRYLSWFQQKPGKVPKHLIYRANRLVDGVPSRFSGSGSGTEFTLTISSLQPEDFATYYCLQYDEFPYTFGGGTKVEIK

EC50 (read off the curve) [8]: ~0.2 nM
B3: AB2.09 (antibody, V domains shown)
VH: B2 VH
VL: B2 VL with N1D

binding result [4]: binds
B4: AB6.14 (antibody, V domains shown)
VH: B2 VH with N55Q
VL: B2 VL with K24R, S26R, D28G, D56S

EC50 (read off the curve) [4]: ~0.07 nM | EC50 (read off the curve) [6]: ~0.03 nM
B5: AB6.13 (antibody, V domains shown)
VH: B2 VH with N55Q
VL: B2 VL with K24R, S26R, D28G, H46I

EC50 (read off the curve) [4]: ~0.3 nM
B6: AB10.14 (antibody, V domains shown)
VH: B2 VH with G56T
VL: B2 VL with K24R, S26R, D28G, D56S

EC50 (read off the curve) [8]: ~0.1 nM
B7: AB03.09 (antibody, V domains shown)
VH: B2 VH with Q1E, M2V
VL: B2 VL with N1D
notes: humanized variant of 2A1; also called AB3.09

EC50 (read off the curve) [9]: ~0.3 nM
B8: AB25.05 (antibody, V domains shown)
VH: B2 VH with Q1E, M2V, T14P, S16A, S17T, V20I, A24V, R38Q, Q43K, A44G
VL: B2 VL

EC50 (read off the curve) [9]: ~0.2 nM
B9: AB24.05 (antibody, V domains shown)
VH: B2 VH with Q1E, M2V, T14P, S16A, S17T, V20I, A24V
VL: B2 VL

IC50 (read off the curve) [10]: ~0.3 nM | Kd [11]: 0.0386 nM | Kd [7]: 0.0399 nM
B10: humanized antibody AB6.12 (human IgG1) (antibody, V domains shown)
VH: B2 VH with N55Q
VL: B2 VL with D56S
notes: also called AB6.12-IgG1; AB6.12-hIgG1

binding result [1]: binds
B11: AB15.05 (antibody, V domains shown)
VH: B2 VH with F27Y, N28T, K30T, D31Y
VL: B2 VL

IC50 (read off the curve) [10]: ~0.4 nM | Kd [11]: 0.0357 nM
B12: humanized antibody AB6.12-IgG4P (antibody, V domains shown)
VH: B2 VH with N55Q
VL: B2 VL with D56S
notes: Igkappa light chain; also called AB6.12-hIgG4P

EC50 (read off the curve) [2]: ~0.1 nM
B13: AB22.05 (antibody, V domains shown)
VH: B2 VH with M81L, E82Q
VL: B2 VL

binding result [4]: binds
B14: AB10.13 (antibody, V domains shown)
VH: B2 VH with G56T
VL: B2 VL with K24R, S26R, D28G, H46I

EC50 (read off the curve) [6]: ~0.2 nM
B15: AB6.17 (antibody, V domains shown)
VH: B2 VH with N55Q
VL: B2 VL with K24R, S26R, D28G, H46L, D56S

binding result [9]: binds
B16: AB02.06 (antibody, V domains shown)
VH: B2 VH
VL: B2 VL with N1D, A10S, M11L, F36Y, V43A, H46R
notes: humanized variant of 2A1; also called AB2.06

EC50 (read off the curve) [2]: ~0.1 nM
B17: AB23.05 (antibody, V domains shown)
VH: B2 VH with R87T, M93V
VL: B2 VL

EC50 (read off the curve) [9]: ~0.5 nM
B18: AB02.03 (antibody, V domains shown)
VH: B2 VH
VL: B2 VL with N1D, A10S, M11L, F36Y, V43A, H46L, E70D, L73F, F83I
notes: humanized variant of 2A1; also called AB2.03

IC50 (read off the curve) [10]: ~0.3 nM | Kd [11]: 0.0346 nM
B19: humanized antibody AB6.12-IgG4PE (antibody, V domains shown)
VH: B2 VH with N55Q
VL: B2 VL with D56S
notes: Igkappa light chain; also called AB6.12-hIgG4PE

EC50 (read off the curve) [9]: ~0.5 nM
B20: AB02.07 (antibody, V domains shown)
VH: B2 VH
VL: DIQMTQSPSSLSASVGDRVTITCRASQDIHRYLAWYQQKPGKVPKLLIYRANRLQSGVPSRFSGSGSGTDFTLTISSLQPEDVATYYCLQYDEFPYTFGQGTKVEIK
notes: humanized variant of 2A1; also called AB2.07

EC50 (read off the curve) [2]: ~0.1 nM
B21: AB12.05 (antibody, V domains shown)
VH: B2 VH with F27Y, N28T, I29F, K30T, D31Y
VL: B2 VL

EC50 (read off the curve) [8]: ~0.2 nM
B22: AB17.05 (antibody, V domains shown)
VH: B2 VH with F27Y, N28T, I29F, K30T
VL: B2 VL

EC50 (read off the curve) [8]: ~0.2 nM
B23: AB11.05 (antibody, V domains shown)
VH: B2 VH with S104P
VL: B2 VL

binding result [1]: binds
B24: AB16.05 (antibody, V domains shown)
VH: B2 VH with F27Y, N28T, I29F, D31Y
VL: B2 VL

EC50 (read off the curve) [6]: ~0.05 nM
B25: AB2.13 (antibody, V domains shown)
VH: B2 VH
VL: B2 VL with K24R, S26R, D28G, H46I

EC50 (read off the curve) [9]: ~0.2 nM
B26: AB02.04 (antibody, V domains shown)
VH: B2 VH
VL: B2 VL with N1D, A10S, M11L, V43A, H46S, E70D
notes: humanized variant of 2A1; also called AB2.04

EC50 (read off the curve) [12]: ~0.09 nM
B27: murine 9E4 antibody (antibody, mouse IgG1, V domains shown)
VH: EVQLRQSGPELVKPGASVKISCKASGYSFTDYYMYWVKQSRVRSLAWIGRINPYTGATGYDQNFKDKASLIVDKSSSTAYMELRSLTSEDSAVYYCARGRNRYDGWFAYWGQGTLVTV
VL: EIQMTQTTSSLSASLGDRVTISCRASQDISNYLNWYQQKPDGTVKLLIYYTSRLHSGVPSRFSGSGSGTDYSLTISNLDQEDIATYFCQQGNALPPTFGGGTNLEIK
